{"source": "paper PMC3836952", "key": {"[1]": {"biological_target": "His163 (UniProt position 288, GKQLNHGVLLV)", "test": "kinetics", "conditions": "35 °C, constant ionic strength (four-component buffer; value not stated), 25 mM glycine, 25 mM acetic acid, 25 mM Mes, 75 mM Tris, 5 mM DTT, pH adjusted with HCl or NaOH"}, "[2]": {"biological_target": "Cys25 (UniProt position 150, GACGSCWAFSA)", "test": "kinetics", "conditions": "35 °C, constant ionic strength (four-component buffer; value not stated), 25 mM glycine, 25 mM acetic acid, 25 mM Mes, 75 mM Tris, 5 mM DTT, pH adjusted with HCl or NaOH"}, "[3]": {"conditions": "Enzyme-substrate complex (saturating Z-FR-MCA) in the presence of 40 µM heparin (10 kDa bovine lung heparin)"}, "[4]": {"conditions": "Enzyme-substrate complex (saturating Z-FR-MCA), no heparin (control)"}}}
{"substance": "Cysteine protease B isoform CPB2.8 lacking the C-terminal extension (CPB2.8ΔCTE, rCPB2.8), cathepsin L-like (Leishmania mexicana; none (C-terminal extension deleted; residue range not stated))", "values": [{"measurement": "pKa", "setting": "[1]; [3]", "result": "8.8±0.1"}, {"measurement": "pKa", "setting": "[1]; [4]", "result": "7.8±0.1"}, {"measurement": "pKa", "setting": "[2]; [3]", "result": "4.6± 0.1"}, {"measurement": "pKa", "setting": "[2]; [4]", "result": "5.1±0.1"}]}
